# Target: 47 aa syntaxin peptide corresponding to the SNARE interaction part of the syntaxin sequence (aa 201-248) (UniProt P32851)
# Test: SPR; Biacore 2000, syntaxin peptide covalently immobilised on a CM5 chip; 0.13 mg/ml S-B in buffer B for 5 min; then washing or denaturing reagents 1 min each; 25°C
# S-B, fusion of brevin to the C-terminus of SNAP25, sequence (chain): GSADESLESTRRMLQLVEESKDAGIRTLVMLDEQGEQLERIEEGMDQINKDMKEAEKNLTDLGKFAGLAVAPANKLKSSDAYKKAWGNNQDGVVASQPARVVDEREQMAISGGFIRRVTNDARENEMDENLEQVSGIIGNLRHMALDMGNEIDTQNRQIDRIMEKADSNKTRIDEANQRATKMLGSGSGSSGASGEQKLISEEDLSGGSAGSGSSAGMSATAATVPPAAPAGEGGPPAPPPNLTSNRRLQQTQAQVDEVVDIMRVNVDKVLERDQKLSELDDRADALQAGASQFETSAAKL
substance,measurement,value
"S-B, fusion of brevin to the C-terminus of SNAP25",percent of originally bound S-B resistant to the harsh treatments,< 50%

# — article PMC2885309
